Laboratory results reported in IntAct's records for PubMed 31515488.

B1: Notch homolog 2 N-terminal-like protein A (Homo sapiens), Q7Z3S9 (parent)
chain: MCVTYHNGTGYCKCPEGFLGEYCQHRDPCEKNRCQNGGTCVAQAMLGKATCRCASGFTGEDCQYSTSHPCFVSRPCLNGGTCHMLSRDTYECTCQVGFTGKECQWTDACLSHPCANGSTCTTVANQFSCKCLTGFTGQKCETDVNECDIPGHCQHGGTCLNLPGSYQCQCLQGFTGQYCDSLYVPCAPSPCVNGGTCRQTGDFTFECNCLPETVRRGTELWERDREVWNGKEHDEN
partner: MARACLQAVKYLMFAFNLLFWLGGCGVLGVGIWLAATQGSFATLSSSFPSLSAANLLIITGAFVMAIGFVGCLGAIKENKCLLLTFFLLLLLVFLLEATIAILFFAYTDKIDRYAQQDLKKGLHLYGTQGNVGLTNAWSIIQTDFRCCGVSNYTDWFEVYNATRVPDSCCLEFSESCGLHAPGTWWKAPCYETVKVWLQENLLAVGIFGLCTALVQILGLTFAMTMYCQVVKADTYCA
B2: Protein FAM9B (Homo sapiens), Q8IZU0 (parent)
chain: MAAWGKKHAGKDPVRDECEERNRFTETREEDVTDEHGEREPFAETDEHTGANTKKPEDTAEDLTAKRKRMKMDKTCSKTKNKSKHALRKKQLKRQKRDYIHSLKLLNVLEEYITDEQKEEEEEEGEEEELIRIFQEQQKKWQQYRSVRRERLKEMKLLRDQFVKALEDFEDLCDRVFSDEDSELDN
partner: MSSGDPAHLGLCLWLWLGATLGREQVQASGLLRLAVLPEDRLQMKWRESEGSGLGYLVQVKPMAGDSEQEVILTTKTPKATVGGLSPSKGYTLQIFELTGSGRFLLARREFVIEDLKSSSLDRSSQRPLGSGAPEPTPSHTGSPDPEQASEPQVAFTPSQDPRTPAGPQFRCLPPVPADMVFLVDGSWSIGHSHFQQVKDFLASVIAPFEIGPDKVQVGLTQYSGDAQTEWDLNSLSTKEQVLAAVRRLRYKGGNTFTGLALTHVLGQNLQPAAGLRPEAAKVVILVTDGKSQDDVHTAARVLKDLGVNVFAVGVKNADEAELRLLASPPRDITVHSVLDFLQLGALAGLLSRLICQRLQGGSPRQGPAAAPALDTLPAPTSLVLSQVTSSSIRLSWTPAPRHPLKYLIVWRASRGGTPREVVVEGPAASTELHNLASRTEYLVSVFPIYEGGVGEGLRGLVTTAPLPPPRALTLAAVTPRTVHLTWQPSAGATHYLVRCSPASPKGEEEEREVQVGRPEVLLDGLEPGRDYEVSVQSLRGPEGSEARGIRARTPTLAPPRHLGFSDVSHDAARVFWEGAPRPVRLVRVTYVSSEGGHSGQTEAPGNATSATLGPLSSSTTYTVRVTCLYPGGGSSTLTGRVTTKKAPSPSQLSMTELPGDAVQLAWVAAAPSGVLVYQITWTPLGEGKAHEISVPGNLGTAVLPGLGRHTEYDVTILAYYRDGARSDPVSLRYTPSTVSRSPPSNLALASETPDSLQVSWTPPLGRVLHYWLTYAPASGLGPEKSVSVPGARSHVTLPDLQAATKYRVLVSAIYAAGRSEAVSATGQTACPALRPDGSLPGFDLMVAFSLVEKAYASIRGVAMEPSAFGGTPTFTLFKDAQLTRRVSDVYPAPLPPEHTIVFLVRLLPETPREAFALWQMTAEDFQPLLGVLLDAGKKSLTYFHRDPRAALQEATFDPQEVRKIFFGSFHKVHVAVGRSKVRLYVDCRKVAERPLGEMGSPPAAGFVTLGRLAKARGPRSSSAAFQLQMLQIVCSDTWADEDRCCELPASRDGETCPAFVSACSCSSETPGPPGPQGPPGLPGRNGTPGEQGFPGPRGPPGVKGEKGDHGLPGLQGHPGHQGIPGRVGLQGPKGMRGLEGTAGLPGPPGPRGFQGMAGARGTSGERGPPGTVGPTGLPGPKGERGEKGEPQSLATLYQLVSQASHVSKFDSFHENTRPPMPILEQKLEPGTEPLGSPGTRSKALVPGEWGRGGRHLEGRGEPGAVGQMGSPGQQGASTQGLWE
B3: Embryonal Fyn-associated substrate (Homo sapiens), O43281 (parent)
chain: MAIATSTQLARALYDNTAESPQELSFRRGDVLRVLQREGAGGLDGWCLCSLHGQQGIVPANRVKLLPAGPAPKPSLSPASPAQPGSPYPAPDHSNEDQEVYVVPPPARPCPTSGPPAGPCPPSPDLIYKIPRASGTQLAAPRDALEVYDVPPTALRVPSSGPYDCPASFSHPLTRVAPQPPGEDDAPYDVPLTPKPPAELEPDLEWEGGREPGPPIYAAPSNLKRASALLNLYEAPEELLADGEGGGTDEGIYDVPLLGPEAPPSPEPPGALASHDQDTLAQLLARSPPPPHRPRLPSAESLSRRPLPALPVPEAPSPSPVPSPAPGRKGSIQDRPLPPPPPRLPGYGGPKVEGDPEGREMEDDPAGHHNEYEGIPMAEEYDYVHLKGMDKAQGSRPPDQACTGDPELPERGMPAPQEALSPGEPLVVSTGDLQLLYFYAGQCQSHYSALQAAVAALMSSTQANQPPRLFVPHSKRVVVAAHRLVFVGDTLGRLAASAPLRAQVRAAGTALGQALRATVLAVKGAALGYPSSPAIQEMVQCVTELAGQALQFTTLLTSLAP
partner: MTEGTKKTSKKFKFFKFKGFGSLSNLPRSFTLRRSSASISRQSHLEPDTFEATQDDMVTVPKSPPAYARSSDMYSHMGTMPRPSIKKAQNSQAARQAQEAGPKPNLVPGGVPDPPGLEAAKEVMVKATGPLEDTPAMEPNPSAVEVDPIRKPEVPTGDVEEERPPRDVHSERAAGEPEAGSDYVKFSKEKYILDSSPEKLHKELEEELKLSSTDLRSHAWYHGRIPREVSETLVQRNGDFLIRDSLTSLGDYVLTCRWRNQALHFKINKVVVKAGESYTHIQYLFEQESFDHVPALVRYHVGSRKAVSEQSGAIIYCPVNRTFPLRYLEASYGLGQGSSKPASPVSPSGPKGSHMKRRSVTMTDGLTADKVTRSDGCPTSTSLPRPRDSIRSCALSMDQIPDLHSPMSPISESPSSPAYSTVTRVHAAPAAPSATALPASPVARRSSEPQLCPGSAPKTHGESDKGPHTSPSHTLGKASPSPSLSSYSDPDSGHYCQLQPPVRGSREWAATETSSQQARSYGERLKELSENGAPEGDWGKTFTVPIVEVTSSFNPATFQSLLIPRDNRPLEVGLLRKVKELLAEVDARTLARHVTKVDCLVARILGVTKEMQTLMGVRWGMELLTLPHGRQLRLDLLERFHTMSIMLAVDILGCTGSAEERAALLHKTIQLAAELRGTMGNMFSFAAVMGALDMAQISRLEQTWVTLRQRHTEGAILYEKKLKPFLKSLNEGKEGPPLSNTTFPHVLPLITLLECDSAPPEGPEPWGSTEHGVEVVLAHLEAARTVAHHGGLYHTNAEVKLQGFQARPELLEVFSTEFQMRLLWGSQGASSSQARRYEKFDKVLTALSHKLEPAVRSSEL
B4: Syntenin-2 (Homo sapiens), Q9H190 (parent)
chain: MSSLYPSLEDLKVDQAIQAQVRASPKMPALPVQATAISPPPVLYPNLAELENYMGLSLSSQEVQESLLQIPEGDSTAVSGPGPGQMVAPVTGYSLGVRRAEIKPGVREIHLCKDERGKTGLRLRKVDQGLFVQLVQANTPASLVGLRFGDQLLQIDGRDCAGWSSHKAHQVVKKASGDKIVVVVRDRPFQRTVTMHKDSMGHVGFVIKKGKIVSLVKGSSAARNGLLTNHYVCEVDGQNVIGLKDKKIMEILATAGNVVTLTIIPSVIYEHMVKKLPPVLLHHTMDHSIPDA
partner: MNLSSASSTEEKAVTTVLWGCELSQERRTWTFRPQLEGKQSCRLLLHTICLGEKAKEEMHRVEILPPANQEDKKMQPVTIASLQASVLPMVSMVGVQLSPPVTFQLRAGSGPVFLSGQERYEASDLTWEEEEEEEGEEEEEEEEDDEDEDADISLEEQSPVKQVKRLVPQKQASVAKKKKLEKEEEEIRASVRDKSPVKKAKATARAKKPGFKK

Variants of: B1
Details: with tsn4_human TSPAN4, O14817

Row | effect of a mutation on the interaction | Variant
1 | with no effect | A115T
2 | with no effect | R74Q

Variants of: B2
Details: with coka1_human COL20A1, Q9P218

Row | effect of a mutation on the interaction | Variant
3 | with no effect | R23H

Variants of: B3
Details: with sh2d3_human SH2D3C

Row | effect of a mutation on the interaction | Variant
4 | with no effect | A140D
5 | with no effect | S265F

Variants of: B4
Details: with npm2_human NPM2, Q86SE8

Row | effect of a mutation on the interaction | Variant
6 | with no effect | V182M
7 | disrupting interaction strength | G242R
